# Reference: ChEMBL document CHEMBL2074002, “Functional analysis of a canalicular multispecific organic anion transporter cloned from rat liver” (J Biol Chem, 1998)
# Substrate: N[C@@H](CCC(=O)N[C@H](CSc1ccc([N+](=O)[O-])cc1[N+](=O)[O-])C(=O)NCC(=O)O)C(=O)O
# Experiment: TP_TRANSPORTER: uptake in membrane vesicle from Mrp2-expressing NIH/3T3 cell
# Format: functional, cell membranes, NIH3T3
protein,measurement,value
ATP-binding cassette sub-family C member 2 (Rattus norvegicus) (protein) MDKFCNSTFWDLSLLESPEADLPLCFEQTVLVWIPLGFLWLLAPWQLYSVYRSRTKRSSITKFYLAKQVFVVFLLILAAIDLSLALTEDTGQATVPPVRYTNPILYLCTWLLVLAVQHSRQWCVRKNSWFLSLFWILSVLCGVFQFQTLIRALLKDSKSNMAYSYLFFVSYGFQIVLLILTAFSGPSDSTQTPSVTASFLSSITFSWYDRTVLKGYKHPLTLEDVWDIDEGFKTRSVTSKFEAAMTKDLQKARQAFQRRLQKSQRKPEATLHGLNKKQSQSQDVLVLEEAKKKSEKTTKDYPKSWLIKSLFKTFHVVILKSFILKLIHDLLVFLNPQLLKLLIGFVKSSNSYVWFGYICAILMFAVTLIQSFCLQSYFQHCFVLGMCVRTTVMSSIYKKALTLSNLARKQYTIGETVNLMSVDSQKLMDATNYMQLVWSSVIQITLSIFFLWRELGPSILAGVGVMVLLIPVNGVLATKIRNIQVQNMKNKDKRLKIMNEILSGIKILKYFAWEPSFQEQVQGIRKKELKNLLRFGQLQSLLIFILQITPILVSVVTFSVYVLVDSANVLNAEKAFTSITLFNILRFPLSMLPMVTSSILQASVSVDRLERYLGGDDLDTSAIRRVSNFDKAVKFSEASFTWDPDLEATIQDVNLDIKPGQLVAVVGTVGSGKSSLVSAMLGEMENVHGHITIQGSTAYVPQQSWIQNGTIKDNILFGSEYNEKKYQQVLKACALLPDLEILPGGDMAEIGEKGINLSGGQKQRVSLARAAYQDADIYILDDPLSAVDAHVGKHIFNKVVGPNGLLAGKTRIFVTHGIHFLPQVDEIVVLGKGTILEKGSYRDLLDKKGVFARNWKTFMKHSGPEGEATVNNDSEAEDDDDGLIPTMEEIPEDAASLAMRRENSLRRTLSRSSRSSSRRGKSLKNSLKIKNVNVLKEKEKEVEGQKLIKKEFVETGKVKFSIYLKYLQAVGWWSILFIILFYGLNNVAFIGSNLWLSAWTSDSDNLNGTNNSSSHRDMRIGVFGALGLAQGICLLISTLWSIYACRNASKALHGQLLTNILRAPMRFFDTTPTGRIVNRFSGDISTVDDLLPQTLRSWMMCFFGIAGTLVMICMATPVFAIIIIPLSILYISVQVFYVATSRQLRRLDSVTKSPIYSHFSETVTGLPIIRAFEHQQRFLAWNEKQIDINQKCVFSWITSNRWLAIRLELVGNLVVFCSALLLVIYRKTLTGDVVGFVLSNALNITQTLNWLVRMTSEAETNIVAVERISEYINVENEAPWVTDKRPPADWPRHGEIQFNNYQVRYRPELDLVLKGITCNIKSGEKVGVVGRTGAGKSSLTNCLFRILESAGGQIIIDGIDVASIGLHDLRERLTIIPQDPILFSGSLRMNLDPFNKYSDEEVWRALELAHLRSFVSGLQLGLLSEVTEGGDNLSIGQRQLLCLGRAVLRKSKILVLDEATAAVDLETDSLIQTTIRKEFSQCTVITIAHRLHTIMDSDKIMVLDNGKIVEYGSPEELLSNRGSFYLMAKEAGIENVNHTEL,Km,0.175 µM
